Measurements published in the supplement of paper PMC10724198.
± gives the standard deviation of the averaged measurements.
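Note: PSI is a weighted mean of sequencing reads over stability bins, variants kept only with over 10 reads, mCherry proximal and sfGFP distal, peptide attached via GGGS linker.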

Each sequence was assayed on Saccharomyces cerevisiae (assay: protein stability index of tFT-peptide fusion (C-terminal peptide) (PSI (0-1 scale)); higher = more stable (slower turnover)). Details: genetic background: wild type; temperature: 30 C.
PPSIFELFPSPP gave a protein stability index of 0.7122 ± 0.0051.
With PPSLHSRAFTLS the protein stability index was 0.557 ± 0.2.
PPSLPAPPPPPA was tested, and the protein stability index was 0.6655 ± 0.0023.
PPSLSGECSPSF gave a protein stability index of 0.6781 ± 0.0039.
With PPSLTPPFSPLL the protein stability index was 0.703 ± 0.027.
Work on PPSLTSPRHPPT yielded a protein stability index of 0.669 ± 0.022.
Work on PPSNASFSSPPH yielded a protein stability index of 0.824 ± 0.035.
PPSPAGPLPSPA gave a protein stability index of 0.686 ± 0.021.
PPSPHLPPPPAL gave a protein stability index of 0.715 ± 0.016.
Work on PPSPPAPPAPPH yielded a protein stability index of 0.692 ± 0.038.
Work on PPSPPLPPLPPP yielded a protein stability index of 0.653 ± 0.0084.
With PPSPPLRPPSLC the protein stability index was 0.704 ± 0.024.
With PPSPPPPPPLHS the protein stability index was 0.676 ± 0.042.
PPSPPPTPFPPS was tested, and the protein stability index was 0.651 ± 0.1.
PPSPPPTTPSPP was tested, and the protein stability index was 0.656 ± 0.035.
With PPSPPSSHPLLP the protein stability index was 0.679 ± 0.0078.
With PPSPSPPAPQAS the protein stability index was 0.632 ± 0.05.
PPSRPPPPPPSP gave a protein stability index of 0.702 ± 0.061.
In the case of PPSSLPRLQCSP, the protein stability index is reported as 0.674 ± 0.054.
With PPSSPHAPTALP the protein stability index was 0.685 ± 0.032.
In the case of PPSSPTRPSSPL, the protein stability index is reported as 0.736 ± 0.051.
PPTANPMLPPPF gave a protein stability index of 0.651 ± 0.055.
PPTASPPPLSPL showed a protein stability index of 0.691 ± 0.083.
PPTFLLRSAPSL gave a protein stability index of 0.669 ± 0.043.
With PPTFRLHCPPAT the protein stability index was 0.72 ± 0.02.
Work on PPTLRRGSTFYH yielded a protein stability index of 0.6788 ± 0.0016.
PPTNTPTPPSYV gave a protein stability index of 0.691 ± 0.025.
PPTPAAPGLPPA gave a protein stability index of 0.677 ± 0.035.
Work on PPTPPAFPPLLA yielded a protein stability index of 0.662 ± 0.03.
PPTPQRRRSPPP was tested, and the protein stability index was 0.7326 ± 0.0066.
For PPTPSLPRPPMQ, the protein stability index was 0.676 ± 0.014.
For PPTPSSPRPMAP, the protein stability index was 0.818 ± 0.14.
Work on PPTPVSRSPPPA yielded a protein stability index of 0.665 ± 0.021.
With PPTRPPPALIPP the protein stability index was 0.711 ± 0.022.
PPTRSLYLLPLI showed a protein stability index of 0.6983 ± 0.0035.
With PPVLPVGLPPTP the protein stability index was 0.684 ± 0.035.
In the case of PPVLTLFMPSYS, the protein stability index is reported as 0.7051 ± 0.0043.
In the case of PPVPPLRPSCPS, the protein stability index is reported as 0.684 ± 0.01.
Sequence PPVSLGCPPGRP has a protein stability index of 0.776 ± 0.099.
Sequence PPVSPFPVLQGR has a protein stability index of 0.652 ± 0.048.
With PPWPPQVALPPT the protein stability index was 0.762 ± 0.068.
PPYPLLLRLPPP was tested, and the protein stability index was 0.618 ± 0.066.
With PQCSLPLPFTLL the protein stability index was 0.61363 ± 0.00047.
In the case of PQHLPFPSPAPP, the protein stability index is reported as 0.711 ± 0.011.
With PQILTSRVAIKL the protein stability index was 0.646 ± 0.068.
Sequence PQLFLENHEFCI has a protein stability index of 0.925 ± 0.051.
In the case of PQLPSRVYPSLP, the protein stability index is reported as 0.695 ± 0.027.
Sequence PQRPRTLPPLTP has a protein stability index of 0.7236 ± 0.0015.
Work on PQTPANDDGDPN yielded a protein stability index of 0.642 ± 0.041.
PQVNSNQIRAPD gave a protein stability index of 0.677 ± 0.021.
PQYLSGFDIHNG gave a protein stability index of 0.728 ± 0.052.
In the case of PRAPHHRIPEDL, the protein stability index is reported as 0.733 ± 0.097.
PRDRLIRNHVTR gave a protein stability index of 0.716 ± 0.086.
Work on PRERADPSLPVK yielded a protein stability index of 0.663 ± 0.035.
In the case of PRFKPSRSTPAD, the protein stability index is reported as 0.675 ± 0.031.
Work on PRGLFLTRLRPC yielded a protein stability index of 0.64 ± 0.058.
In the case of PRIPPLRPPPPA, the protein stability index is reported as 0.6649 ± 0.0047.
PRKVNAHKDTCH showed a protein stability index of 0.693 ± 0.022.
With PRLARSASLDSP the protein stability index was 0.731 ± 0.08.
PRLLPPDPRHAP was tested, and the protein stability index was 0.7002 ± 0.0032.
PRLPPTDHAGAL showed a protein stability index of 0.675 ± 0.04.
PRLRPFATPNCF showed a protein stability index of 0.636 ± 0.046.
PRPDPAPPAALP was tested, and the protein stability index was 0.6017 ± 0.0057.
For PRPGGQGHPNAG, the protein stability index was 0.742 ± 0.027.
PRPKPSAIPILT gave a protein stability index of 0.597 ± 0.015.
PRPLLPPPPLLA showed a protein stability index of 0.629 ± 0.083.
With PRPLPSPPHPRP the protein stability index was 0.71 ± 0.026.
In the case of PRPLPTGRFPPP, the protein stability index is reported as 0.669 ± 0.028.
Sequence PRPPLPSTPEAA has a protein stability index of 0.612 ± 0.024.
PRPPLRATASVV gave a protein stability index of 0.699 ± 0.033.
In the case of PRPPPSRSFPPP, the protein stability index is reported as 0.784 ± 0.13.
Sequence PRPPTSPPSLHP has a protein stability index of 0.7 ± 0.025.
PRQACPLPLPHV showed a protein stability index of 0.655 ± 0.029.
PRQGTRKYDKMN gave a protein stability index of 0.724 ± 0.059.
With PRRAARLLPRPL the protein stability index was 0.693 ± 0.015.
PRRARPLALVFH was tested, and the protein stability index was 0.6 ± 0.033.
Work on PRRSSSPPLLSP yielded a protein stability index of 0.784 ± 0.0088.
With PRSAPPVPPIYP the protein stability index was 0.6502 ± 0.0053.
With PRSAPSPRRSPA the protein stability index was 0.757 ± 0.034.
In the case of PRSFPPRPPPPV, the protein stability index is reported as 0.726 ± 0.051.
PRSLPAGHPSRG gave a protein stability index of 0.692 ± 0.028.
PRSMLIFPSFPF gave a protein stability index of 0.825 ± 0.042.
For PRSPPPPPPLPP, the protein stability index was 0.626 ± 0.019.
Sequence PRSPPTPPPAPP has a protein stability index of 0.66 ± 0.013.
Sequence PRSYPPSPPPPS has a protein stability index of 0.704 ± 0.042.
Work on PRTHPPPPAPCR yielded a protein stability index of 0.6634 ± 0.0054.
PRTPRPPSPPAS gave a protein stability index of 0.739 ± 0.015.
In the case of PRTRSYTRCGVT, the protein stability index is reported as 0.614 ± 0.024.
In the case of PRYCQIKIISHK, the protein stability index is reported as 0.554 ± 0.14.
With PRYPLLPAHTLI the protein stability index was 0.705 ± 0.029.
In the case of PSAFPAPPLRCS, the protein stability index is reported as 0.686 ± 0.027.
PSAPPPPPPSPP gave a protein stability index of 0.5979 ± 0.005.
For PSCLGSIRSTPL, the protein stability index was 0.657 ± 0.02.
For PSDPTPSVPPIV, the protein stability index was 0.6647 ± 0.001.
For PSFPPLLSSSSI, the protein stability index was 0.763 ± 0.11.
PSFVPHLPRPPP was tested, and the protein stability index was 0.722 ± 0.071.
PSHFSPPSAPPP was tested, and the protein stability index was 0.738 ± 0.055.
Sequence PSIHCLSATQTW has a protein stability index of 0.672 ± 0.068.
Work on PSIPPPSPSPPA yielded a protein stability index of 0.717 ± 0.027.
For PSLHSPPPPPPR, the protein stability index was 0.703 ± 0.053.
In the case of PSLLSFPFVSLP, the protein stability index is reported as 0.696 ± 0.05.
With PSLPPLPRSPPP the protein stability index was 0.714 ± 0.04.
In the case of PSLPPPPHSAFC, the protein stability index is reported as 0.698 ± 0.073.
With PSLPPPPPPPSP the protein stability index was 0.614 ± 0.082.
Sequence PSLPPPPPTPPT has a protein stability index of 0.688 ± 0.047.
Sequence PSLPVPPTLCPI has a protein stability index of 0.675 ± 0.062.
Sequence PSLSPPVHALLF has a protein stability index of 0.722 ± 0.013.
In the case of PSLSVPERSPSL, the protein stability index is reported as 0.7 ± 0.041.
PSPFPPPSHPSP showed a protein stability index of 0.695 ± 0.0041.
PSPHAITSHFRP showed a protein stability index of 0.723 ± 0.04.
For PSPHRELNESHE, the protein stability index was 0.674 ± 0.045.
PSPHSPPSFLPL gave a protein stability index of 0.729 ± 0.024.
For PSPLRLPPPSVP, the protein stability index was 0.712 ± 0.013.
Sequence PSPMVPHVPMST has a protein stability index of 0.74579 ± 0.00057.
For PSPPLLTPLPPC, the protein stability index was 0.675 ± 0.022.
With PSPPPGPPPLPP the protein stability index was 0.613 ± 0.011.
For PSPPPHPGGTRR, the protein stability index was 0.652 ± 0.057.
PSPPPHPIHPMA gave a protein stability index of 0.754 ± 0.18.
PSPPPHSAPPLP gave a protein stability index of 0.732 ± 0.025.
PSPPPLLPRPHL was tested, and the protein stability index was 0.714 ± 0.1.
Work on PSPPPPAPPPPP yielded a protein stability index of 0.666 ± 0.013.
Work on PSPPPPPLPPAG yielded a protein stability index of 0.663 ± 0.097.
In the case of PSPPPPSALLSP, the protein stability index is reported as 0.727 ± 0.066.
PSPPPPSLPPPP was tested, and the protein stability index was 0.67 ± 0.15.
With PSPPPRPPLSPP the protein stability index was 0.715 ± 0.052.
Work on PSPPPVRPRHHH yielded a protein stability index of 0.597 ± 0.069.
In the case of PSPPSLPSCYAT, the protein stability index is reported as 0.717 ± 0.029.
With PSPPTPSPPPPP the protein stability index was 0.712 ± 0.062.
PSPRPAPPPPPP gave a protein stability index of 0.707 ± 0.054.
Work on PSPSAFLPCRLD yielded a protein stability index of 0.791 ± 0.094.
For PSPSPPRSPALS, the protein stability index was 0.713 ± 0.056.
For PSPVLLLPPPSL, the protein stability index was 0.745 ± 0.059.
In the case of PSPWPPPPSDPP, the protein stability index is reported as 0.552 ± 0.12.
PSQRRTPPGLFK showed a protein stability index of 0.656 ± 0.059.
PSRRILFSAALL gave a protein stability index of 0.764 ± 0.28.
Sequence PSRYHPLPPPTP has a protein stability index of 0.711 ± 0.084.
For PSSDVLLFALSF, the protein stability index was 0.6486 ± 0.0049.
Work on PSSPLFLPPPPP yielded a protein stability index of 0.696 ± 0.023.
With PSSPPPPPLPPC the protein stability index was 0.649 ± 0.058.
PSSPSTRPRFPL was tested, and the protein stability index was 0.68 ± 0.083.
In the case of PSSRPPMSPIDT, the protein stability index is reported as 0.694 ± 0.018.
PSSSSPPPTFSL showed a protein stability index of 0.625 ± 0.066.
Sequence PSSSSPPSLTPA has a protein stability index of 0.672 ± 0.097.
PSTLPSHRVPLK showed a protein stability index of 0.68 ± 0.041.
Sequence PSTPRPPRPPPL has a protein stability index of 0.695 ± 0.027.
PSTRVPATTHTL showed a protein stability index of 0.6983 ± 0.00091.
PSVPPSPPAPPT gave a protein stability index of 0.687 ± 0.032.
PSVPSPPPPSPP gave a protein stability index of 0.683 ± 0.024.
With PSWPRRSSPLAI the protein stability index was 0.73 ± 0.013.
PSWVFRCAPSPF showed a protein stability index of 0.505 ± 0.084.
With PSYPTAPHHSAA the protein stability index was 0.704 ± 0.043.
With PTARGACRAPRS the protein stability index was 0.667 ± 0.037.
Work on PTGSGLTLNRVL yielded a protein stability index of 0.7187 ± 0.0062.
PTHPSRLRLFSA showed a protein stability index of 0.612 ± 0.024.
With PTLAFIPIPTLF the protein stability index was 0.6051 ± 0.004.
In the case of PTLCLPESSGRL, the protein stability index is reported as 0.705 ± 0.028.
Sequence PTLWRSSVRHVW has a protein stability index of 0.714 ± 0.066.
PTPCCFPHPPPT was tested, and the protein stability index was 0.709 ± 0.02.
With PTPFVPSPPCRA the protein stability index was 0.664 ± 0.041.
In the case of PTPGSSPLPATL, the protein stability index is reported as 0.687 ± 0.0075.
